B1: Protein VAC14 homolog (Homo sapiens), Q08AM6 (parent)
chain: MNPEKDFAPLTPNIVRALNDKLYEKRKVAALEIEKLVREFVAQNNTVQIKHVIQTLSQEFALSQHPHSRKGGLIGLAACSIALGKDSGLYLKELIEPVLTCFNDADSRLRYYACEALYNIVKVARGAVLPHFNVLFDGLSKLAADPDPNVKSGSELLDRLLKDIVTESNKFDLVSFIPLLRERIYSNNQYARQFIISWILVLESVPDINLLDYLPEILDGLFQILGDNGKEIRKMCEVVLGEFLKEIKKNPSSVKFAEMANILVIHCQTTDDLIQLTAMCWMREFIQLAGRVMLPYSSGILTAVLPCLAYDDRKKSIKEVANVCNQSLMKLVTPEDDELDELRPGQRQAEPTPDDALPKQEGTASGGPDGSCDSSFSSGISVFTAASTERAPVTLHLDGIVQVLNCHLSDTAIGMMTRIAVLKWLYHLYIKTPRKMFRHTDSLFPILLQTLSDESDEVILKDLEVLAEIASSPAGQTDDPGPLDGPDLQASHSELQVPTPGRAGLLNTSGTKGLECSPSTPTMNSYFYKFMINLLKRFSSERKLLEVRGPFIIRQLCLLLNAENIFHSMADILLREEDLKFASTMVHALNTILLTSTELFQLRNQLKDLKTLESQNLFCCLYRSWCHNPVTTVSLCFLTQNYRHAYDLIQKFGDLEVTVDFLAEVDKLVQLIECPIFTYLRLQLLDVKNNPYLIKALYGLLMLLPQSSAFQLLSHRLQCVPNPELLQTEDSLKAAPKSQKADSPSIDYAELLQHFEKVQNKHLEVRHQRSGRGDHLDRRVVL

Variants of: B1
Conditions: with nos1_human NOS1, P29475
Sequence of nos1_human NOS1, P29475 (P29475 whole entry): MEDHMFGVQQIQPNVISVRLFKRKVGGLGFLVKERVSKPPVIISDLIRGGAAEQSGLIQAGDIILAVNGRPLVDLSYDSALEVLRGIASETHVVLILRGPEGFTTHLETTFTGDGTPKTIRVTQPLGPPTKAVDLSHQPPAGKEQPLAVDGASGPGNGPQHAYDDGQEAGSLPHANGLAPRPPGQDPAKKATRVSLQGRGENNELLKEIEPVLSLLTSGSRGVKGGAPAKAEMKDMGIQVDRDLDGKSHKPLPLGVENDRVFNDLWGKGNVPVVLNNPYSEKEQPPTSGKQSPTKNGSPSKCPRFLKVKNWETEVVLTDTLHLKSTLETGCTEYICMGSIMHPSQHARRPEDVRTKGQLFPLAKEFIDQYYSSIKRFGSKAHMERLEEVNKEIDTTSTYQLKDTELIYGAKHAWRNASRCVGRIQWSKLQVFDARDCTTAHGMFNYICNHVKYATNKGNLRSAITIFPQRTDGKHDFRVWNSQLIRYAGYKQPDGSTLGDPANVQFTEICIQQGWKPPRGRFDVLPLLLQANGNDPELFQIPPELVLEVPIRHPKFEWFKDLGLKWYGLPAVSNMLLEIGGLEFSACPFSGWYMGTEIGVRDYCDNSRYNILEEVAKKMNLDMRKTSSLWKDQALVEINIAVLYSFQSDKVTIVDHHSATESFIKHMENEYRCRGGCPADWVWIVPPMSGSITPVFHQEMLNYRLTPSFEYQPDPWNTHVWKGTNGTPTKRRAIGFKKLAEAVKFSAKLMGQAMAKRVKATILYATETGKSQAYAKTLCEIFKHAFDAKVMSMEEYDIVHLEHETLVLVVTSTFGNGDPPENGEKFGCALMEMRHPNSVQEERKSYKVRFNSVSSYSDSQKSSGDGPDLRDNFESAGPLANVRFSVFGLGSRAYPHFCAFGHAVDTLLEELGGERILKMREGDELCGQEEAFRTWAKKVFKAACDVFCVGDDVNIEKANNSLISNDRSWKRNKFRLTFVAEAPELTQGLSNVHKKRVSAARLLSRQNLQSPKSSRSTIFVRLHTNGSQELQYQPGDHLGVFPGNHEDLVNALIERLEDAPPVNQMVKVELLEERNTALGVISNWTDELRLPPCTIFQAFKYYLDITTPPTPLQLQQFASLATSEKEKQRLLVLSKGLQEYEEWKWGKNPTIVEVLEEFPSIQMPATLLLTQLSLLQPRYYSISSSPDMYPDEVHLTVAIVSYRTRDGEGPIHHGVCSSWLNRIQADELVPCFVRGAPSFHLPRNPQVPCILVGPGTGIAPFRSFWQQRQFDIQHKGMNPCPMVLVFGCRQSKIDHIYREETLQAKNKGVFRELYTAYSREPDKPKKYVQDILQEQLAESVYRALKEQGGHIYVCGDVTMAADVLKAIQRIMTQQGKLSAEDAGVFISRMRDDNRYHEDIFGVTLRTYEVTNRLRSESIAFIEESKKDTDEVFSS

| effect of a mutation on the interaction | Variant |
| --- | --- |
| disrupting interaction | L776A |
| decreasing interaction | G773A |
| disrupting interaction | D774A |

Variants of: B1
Conditions: with nos1_human NOS1, P29475
Remark: another data set of the same source

| effect of a mutation on the interaction | Variant |
| --- | --- |
| disrupting interaction | D777A |

— IntAct's records for PubMed 17161399
